In US20180265915A1, “TRANSCRIPTION FACTOR DECOYS” (priority 2008, published 2018):

What was measured:
K. pneumoniae [1] = experiment: Sigma 54 TFD growth assay, cell penetrating peptide transfection; type: cell-based, Klebsiella pneumoniae; conditions: 10 nM TFD; M9 media; complexed with cell penetrating peptide
Protocol: Growth assays were performed as described in Section 4.1 with the difference being that the media used was M9 media (Sambrook et al (1989) Molecular Cloning. 2nd Edition vol. 3 p.A3). The media was not supplemented with any co-transfectant.
Transfection was achieved by complexing the TFD with a cell penetrating peptide. The peptide consisted of two portions: a linear chain of nine D-arginines and a previously described peptide sequence found to be capable of penetrating the membrane of K. pneumoniae (Vaara, Antimicrobial Agents and Chemotherapy (1996) 40:1801). The positively charged arginines (R9) serve to bind the phosphate backbone of the TFD through a charge interaction. The use of such R9 tails to complex transfecting moieties to transfect bacteria has been described previously (Kim, Molecular Therapy (2006) 14:343). The entire sequence of the peptide used was:
TFDs were mixed with increasing amounts of IKFLKFLKKL-R9 peptide in a TE based buffer supplemented with 5% glucose. The mixture was incubated at room temperature for 1 hour and then either used directly in transfections or analysed by agarose gel electrophoresis. Typically the minimum amount of IKFLKFLKKL-R9 was used that caused the complex with DNA not to run in the gel; i.e. the charge of the nucleic acid backbone had been neutralised by binding of poly-arginine. […]

[2] = tested on: methicillin-resistant strains (MRSA); experiment: Sig TFD growth assay on MRSA clinical isolates; type: cell-based, Staphylococcus aureus; conditions: 10 nM TFD; DOTAP, 60 nM Gramicidin
Protocol: Cholesterol/Cy5-labeled decoy polynucleotides were prepared as in Example 5.1. Typically 1 μg of Sig TFD was then complexed with 0.3 μl of the liposomal transfection reagent DOTAP (1,2-dioleoyl-3-trimethylammonium propane; Roche) and incubated at room temperature for 10 min. The assays to determine their effect on growth of bacterial cells were performed using 96 well plates, each well containing 200 μl of broth consisting of BHI media (Becton Dickinson) supplemented with 60 nM Gramicidin (Sigma Corporation. Cat# G5002). 1 μl of various concentrations of a Cholesterol/Cy5-labeled decoy complexed with TFD were added to each well and the effect on bacterial growth of clinical isolates of S. aureus that had been determined to be methicillin-resistant strains (MRSA) was monitored. Growth was monitored by measuring absorbance of the broth at time intervals during incubation. The plates were incubated at 37° C. with shaking and absorbance readings (at 450 nM) were taken using a plate reader.

K. pneumoniae [3] = experiment: KP_Sig TFD growth assay in vitro; type: cell-based, Klebsiella pneumoniae; conditions: PCR_TFD, transfected using a cell penetrating peptide
From the text: Cells were transfected as described in Example 13, using a cell penetrating peptide. […] The two controls used were: untreated cells (K. pneumoniae) and a control TFD consisting of a scrambled sequence.

S. aureus = experiment: Quantification of TFD number by real-time qPCR; type: cell-based, Staphylococcus aureus; conditions: in the presence of the transfection reagents; BHI
Protocol: Cells from individual wells were washed twice in PBS (phosphate buffered saline) and resuspended in 100 μl water. 1 μl of each sample was used in each qPCR reaction, mixing DNA standards or samples with primers to either amplify the TFD (Tef and Ter; SEQ ID NOs 1 & 2) or 16S rRNA (stypF, 5′-ACGGTCTTGCTGTCACTTATA-3′ (SEQ ID NO: 36); stypR, 5′-TACACATATGTTCTTCCCTAATAA-3′ (SEQ ID NO: 37)) in 12.5 ul of SYBR Green DNA mix supplemented with 0.5 μl of ROX (Invitrogen). The resultant data was used to calculate the number of TFDs present per genome.

S. aureus ATCC 6538NA = experiment: Fur TFD growth assay in non-iron-limiting and iron-limiting media; type: cell-based, Staphylococcus aureus; conditions: 1 nM TFD; DOTAP, 60 nM gramicidin
Protocol: S. aureus ATCC 6538NA cultures were grown and maintained in BHI media (Becton Dickenson). Frozen stocks were prepared by mixing equal volumes of a culture in early exponential growth (OD of 0.3 at A600) with 50% glycerol and freezing at −80° C. BHI was the media used for non-iron limiting conditions and NRPMI, which had been prepared as previously described (Skaar et al. 2004), for iron-limiting growth conditions.
A stock solution of gramicidin (Sigma) was freshly prepared by dissolving 21 mg in 1 ml methanol, diluted prior to use in water and further diluting 1/100 in growth medium to give a final concentration of 60 nM. Supplemented media was inoculated 1/100 with the frozen S. aureus stock and incubated at room temperature for 10 min. TFD-DOTAP complexes were formed by mixing 1 ug of TFD with 2 μg of DOTAP (Roche) and incubating at room temperature for 10 min on the bench. The TFD complex was then mixed with inoculated medium, aliquoted into 96 well flat-bottomed plates and growth was analysed by culturing at 37° C. with shaking in a BioTek plate reader.
To achieve transfection, TFDs were mixed with the commercially available lipid preparation DOTAP to form a stable complex and shield the negative charge of the phosphate backbone. The TFD-DOTAP complex was then mixed with S. aureus in BHI, a non-iron limiting medium, which had been supplemented with 60 nM gramicidin. […]

EMRSA15 = experiment: Lag-time growth assay with antibiotics on EMRSA15; type: cell-based, Staphylococcus aureus; conditions: 10 nM TFD
Protocol: Sig dumbbell TFD was prepared as described in Example 9.1 (see below). A growth assay was carried out as described in Example 5.2 with a well-characterised MRSA strain, EMRSA15.
For the cultures treated with the Sig TFD, the lag-time is the delay in growth compared to that seen with the Control TFD in the presence of antibiotic.
Lagtime is defined as the time that growth is delayed (in comparison to a mock-transfected culture) due to treatment of the TFD.

[4] = tested on: clinically-isolated MRSA strain MRSA-5; experiment: Dumbbell Sig TFD growth assay on a clinically-isolated MRSA strain; type: cell-based, Staphylococcus aureus; conditions: 10 nM TFD, dumbbell configuration
Protocol: A growth assay was performed as described in Example 5.1 using the Sig TFD in its dumbbell configuration and a clinically-isolated MRSA strain.

B1: Control TFD: unrelated sequence of similar nucleotide composition that does not occur in the S. aureus genome, SEQ ID NOs: 34 & 35 (nucleic acid, listed as Mycobacterium smegmatis)
chain 1: TGGCCACGGATCCGGGTGACTGCGGGTCCGTA
chain 2: ACGGACCCGCAGTCACCCGGATCCGTGGCCAA
modifications: further chemistry not given here
- inhibition of growth of K. pneumoniae culture (K. pneumoniae [1]): no inhibition was seen
- effect on growth of MRSA strains in BHI medium [2]: no effect on bacterial growth
- effect on K. pneumoniae cell growth in vitro (K. pneumoniae [3]): no effect on cell growth
- number of TFDs detected per genome (S. aureus): 5340 TFDs per genome
- growth of S. aureus in BHI, non-iron limiting medium (S. aureus ATCC 6538NA): reduction of the S. aureus growth rate
- Lagtime (EMRSA15; Ciprofloxacin 0.5 mg/L (text: 0.5 mg/ml)): 0.3 h
- Lagtime (EMRSA15; Erythromycin 0.5 mg/L (text: 0.5 mg/ml)): -0.3 h
- Lagtime (EMRSA15; Methicillin 2 mg/L (text: 2 mg/ml)): 0.2 h
- inhibition of cell growth of clinically-isolated MRSA strain [4]: could not
